Data reported in patent US20150258192A1, “COMPOSITIONS AND METHODS FOR PREVENTING OR TREATING CHRONIC LUNG ALLOGRAFT DYSFUNCTION (CLAD) AND IDIOPATHIC PULMONARY FIBROSIS (IPF)” (priority 2014, published 2015).
No end group written: not given here.

Tests used:
Test in all cases: Kinase Profiling Assay
Assay type in all cases: biochemical
Conditions in all cases: peptide 100 μM
[1] = target: Rsk2(h) (Homo sapiens, UniProt P51812)
How it was run: (§1)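 Specificity of MK2 inhibitory peptides is assessed against a panel of 266 human kinases. Kinase transfers a radiolabeled phosphate from ATP onto a positively charged substrate, which is trapped on a negatively charged filter and quantified by scintillation counting against full-activity control; duplicate determinations.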

[2] = target: T1, PAK2(h) (Homo sapiens, UniProt Q13177)
T1 construct: purchased Millipore
How it was run: as §1

[3] = target: AMPKα2(h) (Homo sapiens, UniProt P54646)
How it was run: as §1

[4] = target: T2, Rse(h) (Homo sapiens, UniProt Q06418)
T2 sequence (Q06418 41-890): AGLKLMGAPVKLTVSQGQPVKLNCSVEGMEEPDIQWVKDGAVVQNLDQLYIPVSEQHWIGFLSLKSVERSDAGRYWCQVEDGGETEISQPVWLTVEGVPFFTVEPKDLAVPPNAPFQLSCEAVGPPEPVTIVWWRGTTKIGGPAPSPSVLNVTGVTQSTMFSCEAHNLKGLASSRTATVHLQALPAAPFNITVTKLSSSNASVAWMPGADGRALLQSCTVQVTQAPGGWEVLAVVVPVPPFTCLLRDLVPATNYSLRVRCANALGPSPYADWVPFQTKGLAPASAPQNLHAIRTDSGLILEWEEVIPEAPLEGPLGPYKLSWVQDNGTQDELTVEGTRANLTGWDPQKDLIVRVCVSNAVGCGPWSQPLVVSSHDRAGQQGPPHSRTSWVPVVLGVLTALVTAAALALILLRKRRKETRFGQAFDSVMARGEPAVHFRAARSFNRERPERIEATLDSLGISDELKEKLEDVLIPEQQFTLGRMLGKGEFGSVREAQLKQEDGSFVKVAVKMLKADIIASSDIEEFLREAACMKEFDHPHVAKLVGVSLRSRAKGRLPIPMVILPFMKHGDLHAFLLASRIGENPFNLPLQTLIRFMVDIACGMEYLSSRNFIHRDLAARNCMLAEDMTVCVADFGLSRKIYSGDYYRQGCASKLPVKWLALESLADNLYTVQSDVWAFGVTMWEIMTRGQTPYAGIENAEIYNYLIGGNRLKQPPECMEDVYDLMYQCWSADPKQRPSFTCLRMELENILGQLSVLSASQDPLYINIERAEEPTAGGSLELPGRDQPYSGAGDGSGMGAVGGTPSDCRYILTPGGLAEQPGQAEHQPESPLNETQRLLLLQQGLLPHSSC
How it was run: as §1

[5] = target: T3, PDK1(h) (Homo sapiens, UniProt O15530)
T3 sequence (O15530 1-556): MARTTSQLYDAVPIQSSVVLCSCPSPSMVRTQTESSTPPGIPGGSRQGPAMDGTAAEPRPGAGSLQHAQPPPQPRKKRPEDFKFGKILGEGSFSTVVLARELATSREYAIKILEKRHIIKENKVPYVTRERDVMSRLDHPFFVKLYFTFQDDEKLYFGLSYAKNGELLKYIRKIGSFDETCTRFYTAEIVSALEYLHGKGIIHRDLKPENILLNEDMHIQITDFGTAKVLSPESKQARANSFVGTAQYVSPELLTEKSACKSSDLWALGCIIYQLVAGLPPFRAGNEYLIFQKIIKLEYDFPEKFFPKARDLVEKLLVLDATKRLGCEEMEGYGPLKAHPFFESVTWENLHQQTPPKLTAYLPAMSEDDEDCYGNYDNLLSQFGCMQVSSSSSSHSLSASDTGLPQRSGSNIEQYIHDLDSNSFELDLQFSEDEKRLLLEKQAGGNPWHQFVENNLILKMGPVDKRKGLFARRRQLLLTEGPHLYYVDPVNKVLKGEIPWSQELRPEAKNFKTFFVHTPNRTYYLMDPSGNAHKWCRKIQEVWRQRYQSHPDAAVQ
How it was run: as §1

[6] = target: Yes(h) (Homo sapiens, UniProt P07947)
How it was run: as §1

[7] = target: T4, IKKα(h) (Homo sapiens, UniProt O15111)
T4 construct: purchased Millipore
T4 sequence (O15111 1-745): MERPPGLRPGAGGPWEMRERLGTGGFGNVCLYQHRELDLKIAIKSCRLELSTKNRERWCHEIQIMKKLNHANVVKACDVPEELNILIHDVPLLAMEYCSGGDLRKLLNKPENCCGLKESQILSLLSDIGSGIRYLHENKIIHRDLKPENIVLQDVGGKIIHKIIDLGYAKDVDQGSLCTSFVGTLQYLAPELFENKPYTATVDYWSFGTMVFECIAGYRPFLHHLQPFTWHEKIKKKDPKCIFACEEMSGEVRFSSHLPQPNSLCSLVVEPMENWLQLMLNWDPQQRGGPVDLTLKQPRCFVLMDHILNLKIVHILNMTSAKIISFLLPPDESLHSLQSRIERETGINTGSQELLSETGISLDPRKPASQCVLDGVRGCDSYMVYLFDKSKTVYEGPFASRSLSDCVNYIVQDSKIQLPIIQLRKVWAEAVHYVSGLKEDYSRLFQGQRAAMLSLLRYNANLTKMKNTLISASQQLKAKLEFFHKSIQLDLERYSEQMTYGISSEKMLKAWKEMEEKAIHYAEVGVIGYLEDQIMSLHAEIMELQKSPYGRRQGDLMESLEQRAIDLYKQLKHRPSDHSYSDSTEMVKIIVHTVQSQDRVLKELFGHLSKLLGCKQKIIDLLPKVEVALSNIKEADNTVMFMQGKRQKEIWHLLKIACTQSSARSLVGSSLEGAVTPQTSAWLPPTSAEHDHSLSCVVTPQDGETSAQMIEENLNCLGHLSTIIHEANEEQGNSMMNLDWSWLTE
How it was run: as §1

[8] = target: FGFR3(h) (Homo sapiens, UniProt P22607)
How it was run: as §1

Chain of Yes(h) (P07947 whole entry): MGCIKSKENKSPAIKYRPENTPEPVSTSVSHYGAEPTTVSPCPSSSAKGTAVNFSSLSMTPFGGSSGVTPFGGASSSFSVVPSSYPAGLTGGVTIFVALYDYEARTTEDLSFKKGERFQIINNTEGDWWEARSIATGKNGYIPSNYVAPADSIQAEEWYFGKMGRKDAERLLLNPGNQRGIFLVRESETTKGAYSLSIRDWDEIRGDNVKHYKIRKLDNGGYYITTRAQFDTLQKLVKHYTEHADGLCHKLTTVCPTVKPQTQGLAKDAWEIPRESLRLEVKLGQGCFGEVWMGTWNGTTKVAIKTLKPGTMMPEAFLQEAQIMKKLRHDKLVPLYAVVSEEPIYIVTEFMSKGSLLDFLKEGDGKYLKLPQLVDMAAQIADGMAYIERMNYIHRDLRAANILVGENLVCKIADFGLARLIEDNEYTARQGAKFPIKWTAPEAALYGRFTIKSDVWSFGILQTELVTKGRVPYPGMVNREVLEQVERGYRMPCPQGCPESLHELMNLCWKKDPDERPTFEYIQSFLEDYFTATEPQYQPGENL
Chain of AMPKα2(h) (P54646 whole entry): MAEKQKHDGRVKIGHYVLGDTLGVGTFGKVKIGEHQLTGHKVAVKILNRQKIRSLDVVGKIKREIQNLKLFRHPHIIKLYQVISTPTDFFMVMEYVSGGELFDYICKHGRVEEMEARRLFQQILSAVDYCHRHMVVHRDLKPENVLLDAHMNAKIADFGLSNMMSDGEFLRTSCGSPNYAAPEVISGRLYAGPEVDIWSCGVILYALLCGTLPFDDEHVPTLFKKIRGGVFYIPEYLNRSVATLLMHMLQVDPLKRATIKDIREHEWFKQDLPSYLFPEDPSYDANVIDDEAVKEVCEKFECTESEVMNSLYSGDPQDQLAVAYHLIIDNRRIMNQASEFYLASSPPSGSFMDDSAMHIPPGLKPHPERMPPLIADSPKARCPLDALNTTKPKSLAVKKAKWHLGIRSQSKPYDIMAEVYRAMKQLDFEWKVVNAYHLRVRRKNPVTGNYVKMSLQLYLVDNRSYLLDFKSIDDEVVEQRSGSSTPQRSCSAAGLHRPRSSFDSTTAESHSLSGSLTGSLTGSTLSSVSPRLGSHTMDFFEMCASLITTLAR
Chain of AMPKα2(h) (Q9Y478 whole entry partner): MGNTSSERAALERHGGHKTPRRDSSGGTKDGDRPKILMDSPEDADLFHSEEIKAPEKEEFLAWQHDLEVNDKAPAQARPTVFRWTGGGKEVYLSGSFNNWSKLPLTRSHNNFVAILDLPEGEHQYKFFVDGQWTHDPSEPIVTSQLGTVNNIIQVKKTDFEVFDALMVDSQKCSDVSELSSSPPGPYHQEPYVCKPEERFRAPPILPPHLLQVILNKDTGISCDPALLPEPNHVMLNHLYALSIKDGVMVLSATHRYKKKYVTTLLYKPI
Chain of AMPKα2(h) (P54619 whole entry partner): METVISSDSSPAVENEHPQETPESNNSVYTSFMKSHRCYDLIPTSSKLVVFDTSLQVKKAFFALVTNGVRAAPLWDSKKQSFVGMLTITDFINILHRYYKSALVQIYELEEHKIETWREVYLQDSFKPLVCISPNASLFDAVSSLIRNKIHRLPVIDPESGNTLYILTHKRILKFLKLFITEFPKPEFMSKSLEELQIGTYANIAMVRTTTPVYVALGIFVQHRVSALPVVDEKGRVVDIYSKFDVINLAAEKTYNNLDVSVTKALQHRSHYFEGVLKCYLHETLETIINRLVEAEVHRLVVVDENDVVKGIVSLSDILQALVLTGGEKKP
Chain of Rsk2(h) (P51812 whole entry): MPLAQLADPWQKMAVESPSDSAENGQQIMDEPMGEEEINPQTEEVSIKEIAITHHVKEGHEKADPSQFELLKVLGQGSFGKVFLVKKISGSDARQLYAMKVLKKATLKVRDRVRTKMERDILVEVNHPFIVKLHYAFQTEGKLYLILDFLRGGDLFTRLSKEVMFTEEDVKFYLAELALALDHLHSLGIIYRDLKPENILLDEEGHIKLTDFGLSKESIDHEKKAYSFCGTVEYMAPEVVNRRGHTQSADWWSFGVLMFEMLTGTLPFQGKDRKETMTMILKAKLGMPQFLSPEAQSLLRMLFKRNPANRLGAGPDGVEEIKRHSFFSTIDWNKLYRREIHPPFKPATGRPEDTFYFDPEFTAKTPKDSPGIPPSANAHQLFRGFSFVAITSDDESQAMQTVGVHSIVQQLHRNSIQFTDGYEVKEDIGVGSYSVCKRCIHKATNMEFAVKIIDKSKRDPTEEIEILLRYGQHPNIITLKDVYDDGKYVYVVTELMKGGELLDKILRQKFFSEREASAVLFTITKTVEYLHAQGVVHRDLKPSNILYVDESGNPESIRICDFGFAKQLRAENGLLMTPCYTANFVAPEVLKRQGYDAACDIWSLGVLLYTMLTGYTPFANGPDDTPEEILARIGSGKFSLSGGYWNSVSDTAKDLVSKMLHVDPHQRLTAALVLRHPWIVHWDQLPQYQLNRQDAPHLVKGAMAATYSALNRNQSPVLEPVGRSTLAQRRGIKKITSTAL
T1 sequence (Q13177 whole entry): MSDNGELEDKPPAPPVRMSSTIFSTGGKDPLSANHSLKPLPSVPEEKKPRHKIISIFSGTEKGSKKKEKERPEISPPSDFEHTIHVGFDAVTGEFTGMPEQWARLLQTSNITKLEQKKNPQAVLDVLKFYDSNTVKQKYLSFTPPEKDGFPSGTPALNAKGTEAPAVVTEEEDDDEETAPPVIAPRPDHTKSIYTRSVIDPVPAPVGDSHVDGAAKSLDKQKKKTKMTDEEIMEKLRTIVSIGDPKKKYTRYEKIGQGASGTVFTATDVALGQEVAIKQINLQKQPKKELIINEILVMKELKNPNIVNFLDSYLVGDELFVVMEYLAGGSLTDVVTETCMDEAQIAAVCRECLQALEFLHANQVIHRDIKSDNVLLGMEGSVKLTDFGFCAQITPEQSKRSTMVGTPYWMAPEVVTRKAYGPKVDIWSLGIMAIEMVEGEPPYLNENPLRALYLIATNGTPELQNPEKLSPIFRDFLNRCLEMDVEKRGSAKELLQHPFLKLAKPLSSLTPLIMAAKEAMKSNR
Chain of FGFR3(h) (P22607 23-806): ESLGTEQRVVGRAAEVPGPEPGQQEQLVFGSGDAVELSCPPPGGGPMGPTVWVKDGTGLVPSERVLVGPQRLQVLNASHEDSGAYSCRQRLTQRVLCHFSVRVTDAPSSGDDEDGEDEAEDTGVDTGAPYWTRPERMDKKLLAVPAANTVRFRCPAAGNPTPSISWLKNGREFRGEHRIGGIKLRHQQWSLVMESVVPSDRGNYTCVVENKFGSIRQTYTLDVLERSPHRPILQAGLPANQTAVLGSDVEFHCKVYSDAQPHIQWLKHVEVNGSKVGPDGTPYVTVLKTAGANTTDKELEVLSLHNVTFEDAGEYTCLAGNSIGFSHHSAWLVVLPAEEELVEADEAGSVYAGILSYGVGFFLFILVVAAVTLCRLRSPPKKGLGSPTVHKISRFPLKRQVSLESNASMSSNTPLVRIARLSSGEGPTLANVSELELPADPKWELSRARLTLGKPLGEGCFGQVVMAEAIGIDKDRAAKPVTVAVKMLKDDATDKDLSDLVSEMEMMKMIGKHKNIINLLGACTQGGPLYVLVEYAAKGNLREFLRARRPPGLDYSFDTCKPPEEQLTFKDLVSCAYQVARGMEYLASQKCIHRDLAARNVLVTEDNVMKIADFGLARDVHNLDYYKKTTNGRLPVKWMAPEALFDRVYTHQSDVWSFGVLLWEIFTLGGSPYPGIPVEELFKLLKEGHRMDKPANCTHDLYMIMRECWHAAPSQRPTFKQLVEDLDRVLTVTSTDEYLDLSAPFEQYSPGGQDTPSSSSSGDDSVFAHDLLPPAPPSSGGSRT

Row | Sequence | % activity [1] | % activity [2] | % activity [3] | % activity [4] | % activity [5] | % activity [6] | % activity [7] | % activity [8]
1 | FAKLAARLYRKALARQLGVAA [MMI-0300] | 51% | 65% | 54% | 88% | 135% | 67% | 93% | –
2 | HRRIKAWLKKIKALARQLGVAA (Mammal) [MMI-0500] | 14% | 44% | 9% | 63% | 178% | – | 50% | 10%
3 | KAFAKLAARLYRKALARQLGVAA [MMI-0400] | 38% | 59% | 58% | 89% | 159% | 14% | 87% | 0%
4 | YARAAARQARAKALARQLGVAA [MMI-0100] | – | 71% | – | – | – | – | 108% | 73%
5 | YARAAARQARAKALNRQLGVA (Mammal) [MMI-0200] | 101% | 69% | 88% | 88% | 143% | 93% | – | 208%
